{
  "source": "patent US20230302155A1",
  "about": "“COMPOSITIONS AND METHODS FOR IN VIVO GENERATION OF CAR EXPRESSING CELLS” (Novartis AG, priority 2020, published 2023)",
  "key": {"EGFRvIII CARTs": {"test_system": "EGFRvIII CARTs", "assay": "Cytokine production of EGFRvIII CARTs stimulated by ligand-presenting MSRs", "type": "cell-based", "conditions": "lipid-coated MSRs, multiplex cytokine analysis", "quoted_text": "Briefly, liposomes primarily composed of POPC with 1 mol % PE-biotin were formed using a thin film rehydration method and extrusion through a 100 nm polycarbonate membrane. Hydroxyl functionalized MSRs were incubated with the liposomes to allow the formation of a supported lipid bilayer on the MSR surface (FIG. 6). To functionalize the MSRs with CD3 and CD28 agonistic antibodies, MSRs were washed several times with PBS, incubated with streptavidin, and then tethered with biotinylated CD3 and CD28 antibodies. For MSR-immobilization of EGFRvIII CAR-binding peptides, a biotinylated EGFRvIII CAR-binding peptide was used (FIG. 7).\nAfter incubation with the desired ligands, MSRs were washed several times with PBS and resuspended in culture medium at various concentrations and incubated with T cells. […] Cytokine production was assessed using a multiplex cytokine analysis method (Mesoscale Delivery V-Plex)."}, "[1]": {"test_system": "human dermal lymphatic endothelial cells (HDLECs)", "assay": "HDLECs sprouting (tube formation) assay", "type": "cell-based", "conditions": "600 μg of VEGF-C protein, overnight, phalloidin staining", "description": "Human Dermal Lymphatic Endothelial Cells (HDLECs) were seeded (p0) and passaged at 75% confluence until p4 or enough cells were obtained for experiments. One ml was then aliquoted into Eppendorf tubes, treated with 600 μg of VEGF-C protein, and vortexed. Each treatment was added to warmed media in a 6 well plate and incubated overnight at 37 C (5% CO2). For imaging analysis cells were washed and then fixed with 3.7% formalin-0.05% Triton X-100 solution (fixing buffer), then washed and coated with 0.1% Triton X-100 solution (permeabilization buffer). After washing twice with PBS cells were coated with 0.05% Triton X-100 in 1% BSA solution (blocking buffer). DAPI and phalloidin staining was performed according to known protocols. After staining cells were washed twice with PBS and imaged.\nAn overview of the experimental setup of the in vitro sprouting assay on HDLECs to test the biological activity of VEGF-C variants is shown in FIG. 20A. HDLECs were first seeded (p0) and passaged at 75% confluence until p4 or enough cells were obtained for experiments. About 1 mL of the HDLECs was then aliquoted into Eppendorf tubes, treated with 600 μg of VEGF-C protein, and vortexed. Each treatment was added to warmed media in a 6 well plate and incubated overnight at 37 C (5% CO2). For imaging analysis, cells were washed and then fixed with 3.7% formalin-0.05% Triton X-100 solution (fixing buffer), then washed and coated with 0.1% Triton X-100 solution (permeabilization buffer). After washing twice with PBS, cells were coated with 0.05% Triton X-100 in 1% BSA solution (blocking buffer). DAPI and phalloidin staining was performed according to known protocols. After phalloidin staining, cells were washed twice with PBS, and imaged for tube formation."}, "[2]": {"test_system": "lymphatic endothelial cells (LECs)", "assay": "In vivo lymphangiogenesis in mouse skin after cryogel delivery (flow cytometry)", "parameters": "species or system C57/BL6 mice", "conditions": "for in vivo lymphangiogenesis (LEC counts per mg of tissue): 10 μg VEGF-C in cryogel (0.25 mg/ml laponite), day 14", "description": "(§1) Tissues were harvested from mice, weighted, and cut into very fine pieces with scissors. Samples were then enzymatically digested under constant stirring in of digestion media containing collagenase 4 and DNAse 1. Samples were then pipetted up and down. Following pipetting, digestion media containing collagenase D and DNAse 1 was added to the samples. Samples were pipetted up and down for 3 cycles. EDTA was added (5 mM) and cells were filtered through 70 μm filters and 40 uM mesh and resuspended in Fc blocking buffer. Cells were washed and stained for FACS analysis.\n(§2) Cryogels (0.25 mg/ml laponite) containing 10 μg of different VEGF-C constructs were injected superficially into the dermis mice (N=5/group) at day 0. At day 14 mice were euthanized and the skin/cryogel (combined) were dissected for digestion and FACS analysis. Representative FACS plots of LECs (CD31^+, PDPN^+) are pre-gated on FSC-A/SSC-A, and CD45^− (FIG. 22). The results of FIG. 23 bear on the delivery of VEGF-C. Mice were injected with VEGF-C (N=12) or blank cryogels (N=10) synthesized as previously mentioned. Skin/gels from mice were harvested at timepoints day 7, 14, and 21, digested, and stained for FACS. LECs were gated on CD45^− CD31^+ PDPN^+. BECs were gated on CD45^− CD31^+ PDPN^−. CD4 and CD8 T Cells were gated on CD45^+ CD11b^−CD11c^−Thy1^+.\nFirst, cryogels (0.25 mg/ml laponite) containing 10 μg of different VEGF-C forms, including the dimeric forms of the major and minor mature forms that are wild-type (#2 and #7, respectively) and the major and minor mature forms that comprise the C137A mutation (#9 and #8, respectively), were injected superficially into the dermis of mice (N=5/group) at day 0. At day 14 mice were euthanized and the skin/cryogel (combined) were dissected for digestion and FACS analysis (FIG. 22A). Specifically, tissues were harvested from mice, weighted, and cut into very fine pieces with scissors. Samples were then enzymatically digested under constant stirring of digestion media containing collagenase 4 and DNAse 1. Samples were then pipetted up and down. Following pipetting, digestion media containing collagenase D and DNAse 1 was added to the samples. Samples were pipetted up and down for 3 cycles. EDTA was added (5 mM) and cells were filtered through 70 μm filters and 40 μM mesh and resuspended in Fc blocking buffer. Cells were washed and stained for FACS analysis.\nIn addition, the response of skin lymphatics to […] VEGF-C delivered by alginate cryogels was measured. […] Skin/gels from mice were harvested as described above, at timepoints day 7, 14, and 21, digested, and stained for FACS. LECs were gated on CD45^− CD31^+ PDPN^+. BECs were gated on CD45^− CD31^+ PDPN^−. […] The number of cells per mg of tissue were also quantified."}, "[3]": {"test_system": "CD4+ T cells and CD8+ T cells", "assay": "Immune infiltration of mouse skin after cryogel delivery (flow cytometry)", "type": "in vivo, C57/BL6 mice", "conditions": "skin on top of the cryogels", "description": "as §1\nas §2, with “BECs were gated on CD45^− CD31^+ PDPN^−. CD4 and CD8 T Cells were gated on CD45^+ CD11b^−CD11c^−Thy1^+.” left out\nIn addition, the response of skin lymphatics to […] VEGF-C delivered by alginate cryogels was measured. […] The number of cells per mg of tissue were also quantified."}},
  "note": "“Also recorded” adds a separate entry of the source.",
  "data": [
    {"molecule": "EGFRvIII CAR-binding peptide bound to the surface of the MSRs: biotinylated peptide LEEKKGNYVVTDH (SEQ ID NO: 756) coupled via streptavidin to lipid-coated MSRs", "values": [
      {"measurement": "interferon gamma and IL-2 production", "setting": "EGFRvIII CARTs", "result": "produced interferon gamma and IL-2"}
    ]},
    {"molecule": "free EGFRvIII CAR-binding peptide in solution: EGFRvIII CAR-binding peptide LEEKKGNYVVTDH (SEQ ID NO: 756) [reference compound]", "values": [
      {"measurement": "interferon gamma and IL-2 production", "setting": "EGFRvIII CARTs", "result": "no response"}
    ]},
    {"molecule": "#9: major mature VEGF-C (112-227) with C137A mutation, SEQ ID NO: 737 (His) / 738 (protein) AHYNTEILKSIDNEWRKTQCMPREVAIDVGKEFGVATNTFFKPPCVSVYRCGGCCNSEGLQCMNTSTSYLSKTLFEITVPLSQGPKPVTISFANHTSCRCMSKLDVYRQVHSIIRR", "values": [
      {"measurement": "sprouting of HDLECs (tube formation)", "setting": "[1]", "result": "better sprouting of HDLECs than the immature form"},
      {"measurement": "in vivo lymphangiogenesis (LEC counts per mg of tissue)", "setting": "[2]; skin", "result": "high in vivo lymphangiogenesis; also recorded: higher amounts of LECs compared to the dimers of the major and minor mature forms that are wild-type"}
    ]},
    {"molecule": "#2: major mature VEGF-C (112-227), wild type, SEQ ID NO: 731 (His) / 732 (protein, listed as Homo sapiens) AHYNTEILKSIDNEWRKTQCMPREVCIDVGKEFGVATNTFFKPPCVSVYRCGGCCNSEGLQCMNTSTSYLSKTLFEITVPLSQGPKPVTISFANHTSCRCMSKLDVYRQVHSIIRR", "values": [
      {"measurement": "sprouting of HDLECs (tube formation)", "setting": "[1]", "result": "better sprouting of HDLECs than the immature form"}
    ]},
    {"molecule": "#8: minor mature VEGF-C (103-227) with C137A mutation, SEQ ID NO: 735 (His) / 736 (protein) TEETIKFAAAHYNTEILKSIDNEWRKTQCMPREVAIDVGKEFGVATNTFFKPPCVSVYRCGGCCNSEGLQCMNTSTSYLSKTLFEITVPLSQGPKPVTISFANHTSCRCMSKLDVYRQVHSIIRR", "values": [
      {"measurement": "sprouting of HDLECs (tube formation)", "setting": "[1]", "result": "better sprouting of HDLECs than the immature form"},
      {"measurement": "in vivo lymphangiogenesis (LEC counts per mg of tissue)", "setting": "[2]; skin", "result": "high in vivo lymphangiogenesis; also recorded: higher amounts of LECs compared to the dimers of the major and minor mature forms that are wild-type"},
      {"measurement": "blood vascular endothelial cells (BECs, CD45−CD31+PDPN−)", "setting": "[2]; skin, 14 days after cryogel delivery", "result": "not affected"},
      {"measurement": "day of peak T cell / immune infiltration after cryogel delivery", "setting": "[3]", "result": 14, "unit": "days"}
    ]},
    {"molecule": "#7: minor mature VEGF-C (103-227), wild type, SEQ ID NO: 733 (His) / 734 (protein, listed as Homo sapiens) TEETIKFAAAHYNTEILKSIDNEWRKTQCMPREVCIDVGKEFGVATNTFFKPPCVSVYRCGGCCNSEGLQCMNTSTSYLSKTLFEITVPLSQGPKPVTISFANHTSCRCMSKLDVYRQVHSIIRR", "values": [
      {"measurement": "sprouting of HDLECs (tube formation)", "setting": "[1]", "result": "better sprouting of HDLECs than the immature form"},
      {"measurement": "time of peak lymphangiogenesis after cryogel delivery", "setting": "[2]; 10 μg VEGF-C in alginate cryogel, subcutaneous", "result": 14, "unit": "days"}
    ]}
  ]
}
